Here are results for two substances from patent publication US20220002700A1, “COMPUTATIONALLY-OPTIMIZED ACE2 PEPTIDES FOR COMPETITIVE INTERCEPTION OF SARS-CoV-2” (priority 2020, published 2022).

Assay [1] deals with RBD-sfGFP (SARS-CoV-2 RBD fused to superfolder GFP) (Severe acute respiratory syndrome coronavirus 2, UniProt P0DTC2).
Assay [2] has as its system S protein-pseudotyped virus. It counts as cell-based, SARS-CoV-2.

Where no end group is shown, it is not given here.

As to “23-mer (A2N) (QNKTFLDKFNHEAEDLFYQSSLA; also: fused to a dimerising Fc or GST)”, in assay [1], the “degradation in TRIM21 assay compared with other architectures” value was “improving on both the sACE2 and 23-mer architecture as well as that of a previously optimized full- length mutant, sACE2v2.4”; the “reduction (depletion) of GFP+ cells” value is given as “over 50%”. Also, the “difference in pseudoviral infection competency with addition of exogenous peptide” value in assay [2] is listed as “Minimal difference”.
In the case of “QAKTFLDKFNHEAEDLFYQSSLA [sACE2 peptide variant 2]”, the “reduction (depletion) of GFP+ cells” value in assay [1] is listed as ~20%.
